This data set can be described thus: label from the status in PepcDB records.
Take “MHLSLLVPFLFWITGCCTAEDPVTGPEEVSGQEQGSLTVQCRYTSGWKDYKKYWCQGVPQRSCKTLVETDASEQLVKKNRVSIRDNQRDFIFTVTMEDLRMSDAGIYWCGITKGGLDPMFKVTVNIGPAIQVPITVPTMPPITSTTTIFTVTTTVKETSMFPTLTSYYSDNGHGGGDSGGGEDGVGDGFLDLSVLLPVISAVLLLLLLVASLFAWRMVRRQKKAAGPPSEQAQSLEGDLCYADLSLKQPRTSPGSSWKKGSSMSSSGKDHQEEVEYVTMAPFPREEVSYAALTLAGLGQEPTYGNTGCPITHVPRTGLEEETTEYSSIRRPLPAAMP”: the protein production entry is on record as “not failed”.
With “MHNFLIIGAFISLGILLRRFKALPEHTPFVLNKIAINVCLPALILLNAPKIAFTRDAVTAAIIPWALLALSVGLVLLGAKIWQWPRPVVGVLLLIVPLGNTSFLGVPIIRTFFGADGLPHLIVYDQIGTMMIFATYGSFILSLYGQDGTLSVSAVVRKMLLFPPSLALAAGLALKSWSYPDGLSLALHYLALPLVPVVMTAIGLQLRLRLPPHLAAPVGIGLGIKMLAAPLAVLVACRLVDMNGLAVGVSVVEAGMPPMVTAGALAVVAGMEAELAIALVGIGILCSFGSLPALFWLVSL” the entry was “failed”; with “MHPASFDDHIFRLLIEAVDDYAIYIIDAQGHILTWNNGAERNTGYNADEIIGQSFELFYTPEDLATQLPAKGLLHANQLGHYENQGWRVRKNGKRFWGHITLSALHDSEHNLQGFVQVTRDLTD”, “failed”.
Take “MHQPHLSAEEKQHSHDHLSLDLIEAQYQLKNSAGKKNAKSVLVLVSGIELAGKGESVKQLREWVDPRYLRVKADPPQLLTTNQTFWQPYSSFIPAEGQIVVLFGNWYSDLLTTAMHVSKPLDETLFDAYVNSMRAFEQDLKNNHVDVVKVWFDLSWKSLQKRLDHIDASERQWHKLHGLDWRSKKQYETLQKLRQRFTPDWVFIDGEDEALRDREFAECILKALKDVPDHVQQADAAWTQSVVPQALLQPSSEVLEKAKYKKKLKKLTRRVADALRYDQRNVIVVFEGMDAAGKGGSIKRIVKRLDPREYDIFTISAPEKYELRHPYLWRFWTKLQNCSDIRIFDRSWYGRVLVERVEAFASDIEWQRAYDEINRFEKDLTDSQTVIVKIWLSISKEEQEKRFEAREKTPHKRFKITEDDWRNRAKWDEYLNAAADMFEHTSTDCAPWTIIATDDKPTARIKMLKAILKQLKSK”: the protein production result is recorded as “failed”.
Regarding “MHQSVIDPQGLIDLKILIVIALCLLFSPHIAKILRLPLSATEIILGAIIAYFGFIGKSENFALLANVGFYYLMFIAGMEVNLRAFFNMDKEIAKKSFFYIFLLYALSSLIVWIFGLSLVFVIIIPVMSVGLLSLLFKDFGKECYWLNIAMIVATLAEVISIVLLTIAGAFLREGTGIIDVAQSILYLNIFLGLCLLGFKMLGVLFWWYPQLKVVLMPWEDKNEKDIRFCMAIFILIIVAMVITKLEIVLGSFIAGSFIATFFDHKKDLEHKLSTFGHGFLIPIFFIHIGSTFDLKMILDYKIVLQAFLLMFVMVGLRILCASVFLKRIGFKNMILFGLSHSMPLTLLIATATLGYSGKVIDEKLYSALILTALFEAIIVMSMIKFLSNSKK”, the protein production result is reported as “failed”.
On to “MHREQAPEHRDRTSEHRDRTPERRDRTPEPPGRASGPAAPAPASEPPGTDLGWLLEDLVARTDHVRQAVLLTADGLPLSASDGMRARDIEHLAAVCSGFHSLARSAGERFAAGDVRQTMVMLDDAYLFITPAGDGSRLAVLSEVQTDVGQLAHEMALLVRRVGRHMDAAVRSAVHSAGS”, for which the protein production result is on record as “failed”.
Consider “MHRKPICAALAIISAATLTTSLAYGMTAVELPAGAPADKPVGKLEQVQAFYDAMPTGVTVTETGRIFVNFPRWGDKVPFTVGEVRDGKVVAYPDLAVNHENPKDPGDGLISVQSVVADGKGRVWLLDTAAPEFAAPRPQGAKLVAVDLATNKIVKRLVFPDNVILPSTYVNDMRFDFRQGSQGTVYVTDSSVSGPGAIIVMDIASGHAVRRLSGAKATSADPAFVPVVEGVPVLGDGPDGTRKPVHVAADGIALSADGKTLYFSPLSSRHLYSVATELLNDSAVNEQQLAAAVQDLGEKGASDGLEADADGAVYAGDYEHNAIRKRLPNGVWQTVAHDPRMLWPDTLSIGPDGYLYFIVNQLHRQAGFNSGHDQRKKPYSLLRVKVATAPAPTH”, for which the protein production entry is listed as “failed”.
Take “MHWTIIGGGIQGTAIAQKLLSSGLTTDLLTIIDPHETFCQRFNSYTNRIEMPYLRSPIVHHVHPQPFHLKQFAKQHQYTNAFYGPYQRPELTMFMNHIAHASKQYQLEDCLVQGLVQTLDKQEDKWHIKLEDGQIITTDCVVIAIGSTNIPFMPDILKDKQNVNHIFEKEHDQVVYDKTDHIVGSGITAAHLALKLLNHDNDKKI”: the protein production result was “failed”.
With “MHYDVIVIGGGPSGLMAAIGAAEEGANVLLLDKGNKLGRKLAISGGGRCNVTNRLPLDEIVKHIPGNGRFLYSAFSIFNNEDIITFFENLGVKLKEEDPGRMFPVSNKAQSVVDALLTRLKDLGVKIRTNTPVETIEYENGQTKAVILQTGEVLETNHVVIAVGGKSVPQTGSTGDGYAWAEKAGHTITELFPTEVPILSNEPFIRDRSLQGLALRDINLSVLNPKGKAIISHKMDMLFTHFGLSGPAALRCSQFVVKALKKFKTNTIQMSIDALPEENSEQLFQRMLKQMKEDPKKGIKNVLKGYVPERYFLFLLEKNEIDGSEQAGQVSHEKIRALVKDFKEFTVNVNGTQSIEKAFVTGGGVSVKEINPKEMSSKFTNGLYFCGEVLDIHGYTGGYNITSALVTGRIAGTTAGENAKMQY” the entry was “not failed”.
On to “MHYHGSCHCGTIRFDVEGELTGAMSCNCSICRRKGALLWFVPRDHLRLATPDEQIATYTFNRHLIKHRFCPTCGIHTHGEGVDQQGRAMAAINIRCLDDVDLDAVAVHQYDGRAA”, for which the protein production result was “failed”.
“MIARIPKDIPDLPAIPGMPVLMPSAVPAAAVVAPTRRPLTTAFRLLVALAATAGVTIDLILGSPLRVLTYFTIQSSVLVALTFTLSAWRAWAARRPLPALLTGGTLLYAVITGLVYHLLLAHEPAPFTMTGQAGPLTGWQALTNQLLHTAVPVAVVLDWLLLTGSGRLRLRQASAWLLYPLAYLALTLARGELILPGTPGRYLYPFLDVEQHGYKSVLGNALLLGLAFYALAVLLVTLDRVRPNPLRRRAKNGFRLQPPVG”: the protein production result is “failed”.
With “MICYKCGQDAGWNDKCPVCGADLSLFKRAIRISNSYYNDGLQKAQVRNLSGAIISLRQSLKFYKYNIQARNLLGLIYYEMGEMVDALSEWVISANYQPDDNLAKKYIDQIHNNRNQLETINQTIKKYNQALTYCKQDSKDLAVIQLRKVLSLNPKLVKGHQLLALLYLEEGHLDKAKKALRDAGKIDTDNTTTLRYLKEVNRRLKEKGTERKKKNDDLISYQSGNETIIMPKRFRESSMWANILYIIIGLVVGVAVTCFLVVPGIKSQAKTDAKKQLLSANDTISTNGQTISGLNDQIDKLKKELEDEKKKNDGVSDQISTYEALLNAYVYYTTNDVIKAGEALENINTSYLSDSAKQTYDTLNGSIADSYKEALYSQAYSSYSSGDYQSAIPTFQKLVGMDEAYRDGSAAYYLAQSFRKSGDLASAKPYYQYVVDNYAGTEKARTSKNYLAQEQQ” the entry was “failed”; with “MIDFNVDSARCTRCGQCVADCPSRIIVMATGEYPSIAPGKEFSCLRCEHCLAVCPEAAISILGFSPDGSTPLKGNLPETDQLETLIAGRRSVRRYCPENLSPELIDKLITVASCAPTGVNARKVRFTVLDDREKTAHFRDEVMERLVRLLEEEALPESKAYYARFVKVWQKHKIDLVFRDAPHLLIATAPKSLSTPRQDCVIALTTFELYAQACGIGTLWNGIATWAIEEMLPEMRQRLGIPDDHAFGYAMLFGKPAVRYARTVQHHPPEIYRVPLEHHHHHH”, “not failed”.
For “MIDIHCHILPEIDDGPSSLEESLVMAREAVKEGITKIIATPHHLHPSYNNKAAVVKEKVRKLNEAIQKENIPLEILPGQEVRISGDVMDGLVSGDILTLADQGKYLFVEFSSNHVSRYADKLFFQLLSQDIIPIIVHPERNHEFLKNPGLLYDLVNGGALTQITTSSLTGHLGKKIKKFTEQIIEADLTHFLASDAHNVTERTFRIREAFALVEKNYGSSKAYEFQENAELLVENQHVMGPPPQPIVKKKLLGIF”, the protein production entry is “failed”.

These data come from a protein production outcome set (Wang et al. 2014).
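Note: failed if final PepcDB status was selected cloned or expressed and not failed if soluble or beyond.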
